The values below come from patent publication US20220289833A1 (BIOSION, published 2022).

What is called Kd is the concentration at which binding is half-saturated. The koff is a measure of how fast the partners let go of each other. The kon is the rate constant with which the complex forms.

Experiment [1] addresses T1, Recombinant human TSLP-his (human, UniProt Q969D9 29-159).
T1 construct: Prepared in-house; Amine-coupled to CM5 chip in SPR, loaded on APS sensors in Octet, biotin-labeled in the capture ELISA, unlabeled in the cell functional assays; also called human TSLP-his protein
The experiment can be described thus: SPR, Biacore T200; TSLP-his amine-coupled to CM5 chip, antibody as analyte; 1:1 Langmuir fit. Background: In SPR one partner is held on a chip, and binding of the other changes the refractive index at the surface.
Description: (§1) Briefly, Biosion in house synthesized recombinant human TSLP-his (SEQ ID NO.: 28) or cynomolgus monkey TSLP-his protein (SEQ ID NO.: 29) in CH₃COONa buffer (provided by Biocore) at the concentration of 10 μg/mL was covalently linked to a CM5 chip (carboxy methyl dextran coated chip from GE healthcare #BR100530) via primary amines, using a standard amine coupling kit provided by Biacore (GE healthcare, Pittsburgh, Pa., USA). Un-reacted moieties on the biosensor surface were blocked with ethanolamine. […] The antigen-antibody association kinetics was followed for 4 minutes and the dissociation kinetics was followed for 13 minutes. The association and dissociation curves were fit to a 1:1 Langmuir binding model using BIAcore evaluation software, and the KD, Kₐ and Kd values were determined and shown in Table 2 below.

The target in experiment [2] is T1, Recombinant human TSLP-his. The experiment can be described thus: SPR, Biacore T200; below the instrument limit, roughly calculated from the sensorgram.
Description: as §1
The target in experiment [3] is T1, Recombinant human TSLP-his. The experiment can be described thus: SPR, Biacore T200; protocol of Example 2.
Description: as §1

B1: 1F5H12D7 (antibody, V domains shown)
VH: QVQLQQPGTELVKPGASVKMSCKASGYTFTTYWMHWVKQRPGQGLEWIGVIDPSDSDTTYNQKFKGKATLTVDTSSSTAYMQLSSLTSEDSAVYYCTRSLDGYYDYWGQGTTLTVSS
VL: DIQMTQSPASLSASVGETVTITCRPTENIYSYLAWYQQKQGKSPHLLVYFARTLAEGVPSRFSGSGSGTQFSLKINSLQPEDFGIYYCQHHYGTPWTFGGGTKLEIK
On to B1, for which, in experiment [1], the equilibrium dissociation constant (Kd) was less than 0.112 nM, the koff was less than 1e-05 s⁻¹ and the kon was found to be 89700 M⁻¹ s⁻¹.

B2: 1H3F11B7 (antibody, V domains shown)
VH: QVQLQQPGTELVKPGASVKMSCKASGYTFTTYWMHWVKQRPGQGLEWIGVIDPSDSDTTYNQKFKGKATLTVDTSSSTAYMQLSSLTSEDSAVYYCTRSLDGYYDYWGQGTTLTVSS
VL: DIQMTQSPASLSASVGETVTITCRPTENIYSYLAWYQQKQGKSPHLLVYFARTLAEGVPSRFSGSGSGTQFSLKINSLQPEDFGIYYCQHHYGTPWTFGGGTKLEIK
notes: Mouse hybridoma mAb
Regarding B2, in experiment [1], the dissociation constant (Kd) is less than 0.108 nM, the koff was less than 1e-05 s⁻¹ and the kon amounted to 92900 M⁻¹ s⁻¹.

B3: 1G3B9B1 (antibody, V domains shown)
VH: QVQLQQPGTELVKPGASVKMSCKASGYTFTTYWMHWVKQRPGQGLEWIGVIDPSDSDTTYNQKFKGKATLTVDTSSSTAYMQLSSLTSEDSAVYYCTRSLDGYYDYWGQGTTLTVSS
VL: DIQMTQSPASLSASVGETVTITCRPTENIYSYLAWYQQKQGKSPHLLVYFARTLAEGVPSRFSGSGSGTQFSLKINSLQPEDFGIYYCQHHYGTPWTFGGGTKLEIK
notes: Mouse hybridoma mAb
Turning to B3, in experiment [1], the Kd is less than 0.107 nM, the koff is less than 1e-05 s⁻¹ and the kon came to 93600 M⁻¹ s⁻¹.

B4: 1G2H12A1 (antibody, V domains shown)
VH: QVQLQQPGTELVKPGASVKMSCKASGYTFTTYWMHWVKQRPGQGLEWIGVIDPSDSDTTYNQKFKGKATLTVDTSSSTAYMQLSSLTSEDSAVYYCTRSLDGYYDYWGQGTTLTVSS
VL: DIQMTQSPASLSASVGETVTITCRPTENIYSYLAWYQQKQGKSPHLLVYFARTLAEGVPSRFSGSGSGTQFSLKINSLQPEDFGIYYCQHHYGTPWTFGGGTKLEIK
notes: Mouse hybridoma mAb
As to B4, in experiment [1], the Kd is less than 0.117 nM, the koff was less than 1e-05 s⁻¹ and the kon was 85200 M⁻¹ s⁻¹.

B5: hu1C5F12E9-V16 (antibody, human IgG4 S228P, kappa, V domains shown)
VH: QVQLVQSGAEVKKPGASVKVSCKASGYTFTTYWMHWVRQAPGQGLEWMGVIDPSDSDTTYNQKFKGRATMTRDTSTSTVYMELSSLRSEDTAVYYCTRSLDGYYDYWGQGTLVTVSS
VL: DIQMTQSPSSLSASVGDRVTITCRPTENIYSYLAWYQQKPGKSPKLLIYFARTLAEGVPSRFSGSGSGTDFTLTISSLQPEDFATYYCQHHYGTPWTFGGGTKVEIKR
Turning to B5, in experiment [2], the dissociation rate constant (koff) was approximately 1.17e-06 s⁻¹. In addition, in experiment [3], the Kd was less than 0.0962 nM, the koff was less than 1e-05 s⁻¹ and the kon was determined as 104000 M⁻¹ s⁻¹.

B6: hu1C5F12E9-V13 (antibody, human IgG4 S228P, kappa, V domains shown)
VH: QVQLVQSGAEVKKPGASVKVSCKASGYTFTTYWMHWVRQAPGQGLEWIGVIDPSDSDTTYNQKFKGRATLTVDTSSSTAYMELSSLRSEDTAVYYCTRSLDGYYDYWGQGTLVTVSS
VL: DIQMTQSPSSLSASVGDRVTITCRPTENIYSYLAWYQQKPGKSPKLLIYFARTLAEGVPSRFSGSGSGTDFTLTISSLQPEDFATYYCQHHYGTPWTFGGGTKVEIKR
Consider B6, for which, in experiment [2], the off-rate (koff) was approximately 3.62e-07 s⁻¹. Moreover, in experiment [3], the Kd is less than 0.0962 nM, the off-rate constant (koff) was less than 1e-05 s⁻¹ and the kon came to 104000 M⁻¹ s⁻¹.

B7: hu1C5F12E9-V3 (antibody, human IgG4 S228P, kappa, V domains shown)
VH: QVQLVQSGAEVKKPGASVKVSCKASGYTFTTYWMHWVRQAPGQGLEWMGVIDPSDSDTTYNQKFKGRVTMTVDTSTSTVYMELSSLRSEDTAVYYCTRSLDGYYDYWGQGTLVTVSS
VL: DIQMTQSPSSLSASVGDRVTITCRPTENIYSYLAWYQQKPGKSPKLLVYFARTLAEGVPSRFSGSGSGTDFTLTISSLQPEDFATYYCQHHYGTPWTFGGGTKVEIKR
For the molecule B7, in experiment [2], the koff is less than 1e-05 s⁻¹. Moreover, in experiment [3], the dissociation constant (Kd) is less than 0.0971 nM, the koff is less than 1e-05 s⁻¹ and the kon came out at 103000 M⁻¹ s⁻¹.

B8: hu1C5F12E9-V11 (antibody, human IgG4 S228P, kappa, V domains shown)
VH: QVQLVQSGAEVKKPGASVKVSCKASGYTFTTYWMHWVRQAPGQGLEWMGVIDPSDSDTTYNQKFKGKATMTRDTSTSTVYMELSSLRSEDTAVYYCTRSLDGYYDYWGQGTLVTVSS
VL: DIQMTQSPSSLSASVGDRVTITCRPTENIYSYLAWYQQKPGKAPKLLIYFARTLAEGVPSRFSGSGSGTDFTLTISSLQPEDFATYYCQHHYGTPWTFGGGTKVEIKR
Consider B8, for which the koff in experiment [2] was approximately 7.56e-07 s⁻¹. In addition, in experiment [3], the Kd was less than 0.11 nM, the off-rate (koff) is less than 1e-05 s⁻¹ and the kon came out at 90700 M⁻¹ s⁻¹.

B9: hu1C5F12E9-V1 (antibody, human IgG4 S228P, kappa, V domains shown)
VH: QVQLVQSGAEVKKPGASVKVSCKASGYTFTTYWMHWVRQAPGQGLEWIGVIDPSDSDTTYNQKFKGRATLTVDTSSSTAYMELSSLRSEDTAVYYCTRSLDGYYDYWGQGTLVTVSS
VL: DIQMTQSPSSLSASVGDRVTITCRPTENIYSYLAWYQQKPGKSPKLLVYFARTLAEGVPSRFSGSGSGTDFTLTISSLQPEDFATYYCQHHYGTPWTFGGGTKVEIKR
Consider B9, for which the koff in experiment [2] is less than 1e-05 s⁻¹. Moreover, in experiment [3], the Kd was less than 0.101 nM, the koff was less than 1e-05 s⁻¹ and the kon stood at 99300 M⁻¹ s⁻¹.

B10: hu1C5F12E9-V12 (antibody, human IgG4 S228P, kappa, V domains shown)
VH: QVQLVQSGAEVKKPGASVKVSCKASGYTFTTYWMHWVRQAPGQGLEWMGVIDPSDSDTTYNQKFKGKATMTVDTSTSTVYMELSSLRSEDTAVYYCTRSLDGYYDYWGQGTLVTVSS
VL: DIQMTQSPSSLSASVGDRVTITCRPTENIYSYLAWYQQKPGKAPKLLIYFARTLAEGVPSRFSGSGSGTDFTLTISSLQPEDFATYYCQHHYGTPWTFGGGTKVEIKR
B10: the koff in experiment [2] was less than 1e-05 s⁻¹. In experiment [3], the dissociation constant Kd is less than 0.104 nM, the koff was less than 1e-05 s⁻¹ and the kon turned out to be 96100 M⁻¹ s⁻¹.

B11: hu1C5F12E9-V9 (antibody, human IgG4 S228P, kappa, V domains shown)
VH: QVQLVQSGAEVKKPGASVKVSCKASGYTFTTYWMHWVRQAPGQGLEWMGVIDPSDSDTTYNQKFKGRVTMTVDTSTSTVYMELSSLRSEDTAVYYCTRSLDGYYDYWGQGTLVTVSS
VL: DIQMTQSPSSLSASVGDRVTITCRPTENIYSYLAWYQQKPGKAPKLLIYFARTLAEGVPSRFSGSGSGTDFTLTISSLQPEDFATYYCQHHYGTPWTFGGGTKVEIKR
On to B11, for which, in experiment [2], the koff is approximately 6.57e-07 s⁻¹. For the same molecule, in experiment [3], the Kd is less than 0.082 nM, the koff was less than 1e-05 s⁻¹ and the kon is 122000 M⁻¹ s⁻¹.

B12: hu1C5F12E9-V7 (antibody, human IgG4 S228P, kappa, V domains shown)
VH: QVQLVQSGAEVKKPGASVKVSCKASGYTFTTYWMHWVRQAPGQGLEWIGVIDPSDSDTTYNQKFKGRATLTVDTSSSTAYMELSSLRSEDTAVYYCTRSLDGYYDYWGQGTLVTVSS
VL: DIQMTQSPSSLSASVGDRVTITCRPTENIYSYLAWYQQKPGKAPKLLIYFARTLAEGVPSRFSGSGSGTDFTLTISSLQPEDFATYYCQHHYGTPWTFGGGTKVEIKR
B12: in experiment [2], the koff was less than 1e-05 s⁻¹. Besides, in experiment [3], the Kd is less than 0.0926 nM, the dissociation rate constant (koff) was less than 1e-05 s⁻¹ and the kon was determined as 108000 M⁻¹ s⁻¹.

B13: hu1C5F12E9-V5 (antibody, human IgG4 S228P, kappa, V domains shown)
VH: QVQLVQSGAEVKKPGASVKVSCKASGYTFTTYWMHWVRQAPGQGLEWMGVIDPSDSDTTYNQKFKGKATMTRDTSTSTVYMELSSLRSEDTAVYYCTRSLDGYYDYWGQGTLVTVSS
VL: DIQMTQSPSSLSASVGDRVTITCRPTENIYSYLAWYQQKPGKSPKLLVYFARTLAEGVPSRFSGSGSGTDFTLTISSLQPEDFATYYCQHHYGTPWTFGGGTKVEIKR
Take B13: the koff in experiment [2] was less than 1e-05 s⁻¹. Also, in experiment [3], the Kd is less than 0.0971 nM, the koff was less than 1e-05 s⁻¹ and the kon came to 103000 M⁻¹ s⁻¹.
